Experimental data taken from article PMC3420232.

Molecular target: wild-type human TRAILR1 (human), O00220
Assay: radioligand binding; competition on cells: 4x10^5 murine fibroblasts expressing the (chimeric) TRAIL receptor in PFA (PBS, 2% FCS, 0.002% sodium azide), 83 ng/ml 125I-TRAIL with or without unlabeled recombinant human TRAIL (83-5300 ng/ml), 4 hours on ice; cells spun through phthalate oil; 68 kDa used for TRAIL
Conditions: remark: other sources report otherwise

IC50: 17.7 nM
B1: Flag-tagged recombinant human TRAIL (sTRAIL), unlabeled, P50591 95-281 (ligand)
chain: TSEETISTVQEKQQNISPLVRERGPQRVAAHITGTRGRSNTLSSPNSKNEKALGRKINSWESSRSGHSFLSNLHLRNGELVIHEKGFYYIYSQTYFRFQEEIKENTKNDKQMVQYIYKYTSYPDPILLMKSARNSCWSKDAEYGLYSIYQGGIFELKENDRIFVSVTNEHLIDMDHEASFFGAFLVG
